“And” between values parts separate entries of the source, which are not always exact repeats. Identical values can stand only once.

This data set deals with the molecule itself. Description: cryo-EM structure.

B1: FliF (flagellar MS-ring protein) from Salmonella enterica serovar Typhimurium (natural protein)
chain: MSATASTATQPKPLEWLNRLRANPRIPLIVAGSAAVAIVVAMVLWAKTPDYRTLFSNLSDQDGGAIVAQLTQMNIPYRFANGSGAIEVPADKVHELRLRLAQQGLPKGGAVGFELLDQEKFGISQFSEQVNYQRALEGELARTIETLGPVKSARVHLAMPKPSLFVREQKSPSASVTVTLEPGRALDEGQISAVVHLVSSAVAGLPPGNVTLVDQSGHLLTQSNTSGRDLNDAQLKFANDVESRIQRRIEAILSPIVGNGNVHAQVTAQLDFANKEQTEEHYSPNGDASKATLRSRQLNISEQVGAGYPGGVPGALSNQPAPPNEAPIATPPTNQQNAQNTPQTSTSTNSNSAGPRSTQRNETSNYEVDRTIRHTKMNVGDIERLSVAVVVNYKTLADGKPLPLTADQMKQIEDLTREAMGFSDKRGDTLNVVNSPFSAVDNTGGELPFWQQQSFIDQLLAAGRWLLVLVVAWILWRKAVRPQLTRRVEEAKAAQEQAQVRQETEEAVEVRLSKDEQLQQRRANQRLGAEVMSQRIREMSDNDPRVVALVIRQWMSNDHE
One may read the stoichiometry N as a count of units in the complex or per binding partner. In the case of B1, the “stoichiometry N” value is 33 and 34 and 32 and 35.

The record behind these values is article PMC7320910 (Nature microbiology, 2020).
